Experimental findings from paper PMC5463187 (Nature microbiology, 2017) are described below.

The target of assay [1] is T1, RSV strain A2 post-fusion F (Human respiratory syncytial virus …, UniProt P03420, strain).
T1 construct: source: HEK293, transfected, purified from culture supernatant (HiTrap Talon crude)
As to the kind of experiment: ELISA. The following applies: both partners purified. (ELISA stands for enzyme-linked immunosorbent assay.)

Assay [2] deals with T2, RSV strain 18537 post-fusion F (Human respiratory syncytial virus …, UniProt P13843, strain).
T2 construct: also called RSV B 18537 (post); source: HEK293, transfected, purified from culture supernatant (HiTrap Talon crude)
As to the kind of experiment: ELISA. The following applies: both partners purified.

Assay [3] addresses RSV strain A2 pre-fusion F, single-chain triple mutant (SC-TM) construct (respiratory syncytial virus subgroup A …). Briefly: cell-based or functional assay.
The target in assay [4] is RSV strain 18537 B pre-fusion F (Ds-Cav1) (Human respiratory syncytial virus …, UniProt P13843, stabilised). As to the kind of experiment: cell-based or functional assay.

B1: hRSV90 (human mAb, IgG) (antibody, V domains shown)
VH: EVQLVESGGGLVQPRRSLRLSCAASGFTFDDYTIHWVRQAPGKGLEWVSGITWNSGYIGYADSVKGRFTISRDNARNSLYLQMNSLRAEDTALYYCVRDAYVSGSDYYYYGLDVWGRGTLVTVSS
VL: EIVMTSSPATLSVSPGERVTLFCRASQSVISNLAWYQQKSGQAPRLLIYGASTRATGIPSRFSGSGSGTEFTLTISSLQSEDFAVYFCQQYNNWPLTFGGGTQVNVQ
notes: IgG1, kappa; also called mAb hRSV90
For the molecule B1, the binding result in assay [1] and in assay [2] was “no binding (tested: 1 μg ml^−1)” each time. Moreover, the “plaque-reduction neutralization of RSV A2 (IC50)” value in assay [3] stood at 0.004 µg/mL.

B2: hRSV12 (antibody, V domains shown)
VH: QVQLVQSGAEVKKPGTSVRVSCKTSGYNFMNYGIYWVRQAPGQGLEWVGWISAYNGQTDRAQKFQGRVTMTTDISTNTGYMDLRSLRSDDTAVYFCARGPPVIAAVSLEYWGRGTLVTVSS
VL: EVVMTQSPLSLPVTLGQPASISCKSSQSLVHSNGDTYLNWFQQRPGQSPRRLIYKVSNRDSGVPDRFSGSGSGTDFTLKISRVETEDVGVYYCMQATHWPGSFGQGTKLEIK
On to B2, for which the “plaque-reduction neutralization of RSV A2 (IC50)” value in assay [3] worked out at 0.176 µg/mL. Also, the “plaque-reduction neutralization of RSV 18537 B (IC50)” value in assay [4] amounted to 0.126 µg/mL.

B3: hRSV20 (antibody, V domains shown)
VH: QVQLVESGGGLVQPGRSLRLSCAASGFTFDDYAMHWVRQAPGRGLEWVSGISWNSGIAVYADSVKGRFTISRDNAKKSLYLQINSLRAEDTALYYCVKDNYASGSYSSYYYYYGLDLWGQGTLVTVSS
VL: EIVMTQSPATLSVSPGERATLSCRASQSIISNLAWYQQKPGQAPRLLIYGVSTRATGIPARFSGSGSDTEFTLSISSLQSEDFAVYYCQQYNNWPITFGQGTRLEIK
notes: also called mAb hRSV20
For the molecule B3, the binding result in assay [1] and in assay [2] was “no binding (tested: 1 μg ml^−1)” each time. In addition, the “plaque-reduction neutralization of RSV A2 (IC50)” value in assay [3] was determined as 0.045 µg/mL.

B4: hRSV139 (antibody, V domains shown)
VH: QVQLVQSGAEVKKPGASVKVSCKASGYVFSNYGISWVRQAPGQGLEWMGWISAYNGNTEFAQKFQGRITMTTDTSTNTAYLEVRGLRSDDTAVYYCSRQSGVSGVPEFQDWGQGTLVTVSS
VL: QAVVTQSPLSLPVTLGQPASISCRSSQSLVYSNGDTYLSWFQQRPGQSPRRLIYKVSNRDSGVPDRFSASGSGTDFTLKISRVEAEDVGVYYCMQGTHWPPPTFGQGTRLEIK
notes: also called mAb hRSV139
Regarding B4, the binding result in assay [1] and in assay [2] was “no binding (tested: 1 μg ml^−1)” each time. Further, in assay [3], the “plaque-reduction neutralization of RSV A2 (IC50)” value came out at 0.323 µg/mL.

B5: hRSV97 (antibody, V domains shown)
VH: EVQLVESGGTLVQPGRSLRLSCAASGFNFEEYAMHWVRQVPGKGLEWVARINWNGGIIGYADSVKGRFTISRDNAKKSLYLQMNSLRTDDSALYYCGKDVFWAVAGTGGPIDSWGQGTLVTVSS
VL: DIVMTQSPSSLSASIGDRVTISCRASRDISNYLAWYQQKSGKVPKLLIYAASTLESGVPSRFSGSGSGTDFTLTISSLQPEDVATYYCQNYNSAQMCSFGQGPSLEIK
notes: also called mAb hRSV97
In the case of B5, the binding result in assay [1] and in assay [2] was “no binding (tested: 1 μg ml^−1)” throughout. The “plaque-reduction neutralization of RSV A2 (IC50)” value in assay [3] turned out to be 0.35 µg/mL.

B6: hRSV61 (antibody, V domains shown)
VH: QVQLVQSGAELKKPGASVKVSCKASGYTFTNHGITWVRQAPGQGLEWMSWISGYNGNTQYAQKFQGRVTMTTDTSTRTAYMELRSLTSDDTAVYYCARDNGVVVGPPDYWGQGTLVTVSS
VL: DIQMTQSPSTLSASVGDRVTISCRASQSISSWLAWYQQKPGKPPKLLIYKASGLQTGVPSRFSGSGSGTEFTLTISSLQPDDFATYYCQYYHSLSAFGQGTKVEIK
notes: also called mAb hRSV61
B6: the binding result in assay [1] and in assay [2] was “no binding (tested: 1 μg ml^−1)” each time. Moreover, the “plaque-reduction neutralization of RSV A2 (IC50)” value in assay [3] came to 0.09 µg/mL.
